# Measurements as given in patent US20230391865A1 (University of California, published 2023).
# Target: T1, human Tetraspanin-3 (TSPAN3) (human, UniProt O60637 1-253)
# T1 construct: whole, on cells; also called human TSPAN3; cell surface expressed TSPAN3
# Experiment: flow cytometry (FACS) on TSPAN3-expressing cells
# Excerpt: Using the hybridoma technology, i.e., fusing the antibody-producing B-cells harvested from the immunized mice with myeloma cells, two hybridoma fusion libraries were generated three days later (one from the reactive NZBW mouse and one from the two pooled reactive CD-1 mice), and then retested for reactivity to surface-expressed human TSPAN3.
# T1 sequence (O60637 whole entry): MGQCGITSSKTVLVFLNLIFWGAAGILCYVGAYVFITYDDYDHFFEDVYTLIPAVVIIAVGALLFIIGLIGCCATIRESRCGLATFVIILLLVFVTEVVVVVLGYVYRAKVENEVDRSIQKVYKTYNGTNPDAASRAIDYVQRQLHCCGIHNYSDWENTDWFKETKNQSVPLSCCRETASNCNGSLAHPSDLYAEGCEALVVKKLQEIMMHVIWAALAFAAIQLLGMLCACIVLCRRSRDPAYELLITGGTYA
Binder,% Gated,Median Fluorescence Intensity (MFI)
"Anti-TSPAN3 M3 clone monoclonal antibody (antibody, V domains shown, Mouse hybridoma clone; isotype IgM, kappa; also called Clone 3 (TSPAN3-C - M3)) VH: QIQLVQSGPELKKPGETVKISCKASGYTFTTYGMSWVKQAPGKGLKWMGWINTYSGVPTYADDFKGRFAFSLETSASTAYLQINNLKNEDTATYFCARSHYSNFYAMDYWGQEPQSP VL: DIVMTQSHKFMSTSVGDRVSITCKASQDVGTAVAWYQQKPGQSPKLLIYWASTRHTGVPDRFTGSGSGTDFTLTISNVQSEDLADYFCQQYSSYPLTFGAGTKLELK",60.7%,284 MFI
"Anti-TSPAN3 M1 clone monoclonal antibody (antibody, IgG1, V domains shown, Mouse hybridoma clone (CD-1 library); isotype IgG1, kappa; also called Clone 1 (TSPAN3-C - M1)) VH: QVQLQQPGAELVKPGASVKLSCKASGYTFTSYWMHWVKQRPGQGLEWIGMIHPNSGSPNYNERFKSKATLTVDKSSSTAYMQLSSLTSEDSAVYFCARWGDGYHRYFDVWGTGTTVTVSS VL: DIQMTQSPASLSASVGETVTITCRASGNIHNYLAWYQQKQGKSPQLLVYNAKTLADGVPSRFSGSGSGTQYSLKINSLQPEDFGSYYCQHFWSTPPYTFGGGTKLEIK",59%,290 MFI

# More lines, now with the values ahead:
% Gated,Median Fluorescence Intensity (MFI),Binder
73%,529 MFI,"Anti-TSPAN3 M5 clone monoclonal antibody (antibody, IgG2b, V domains shown, Mouse hybridoma clone; isotype IgG2b, kappa; also called Clone 5 (TSPAN3-C - M5)) VH: EVQLQQSGPELVKPGASVKMSCKASGYTFTDFYMHWVKQSHGRSLEWIGYIYPHNGFTKYNQSFMGKATLTVNKSSNTAYMELRSLTSEDSAVYYCARRYGDYWGQGISVTVSS VL: not shown"
69.5%,308 MFI,"Anti-TSPAN3 M6 clone monoclonal antibody (antibody, IgG2b, V domains shown, Mouse hybridoma clone; isotype IgG2b, kappa; also called Clone 6 (TSPAN3-C - M6)) VH: EVQLQQSGPELVKPGASVKMSCKASGYTFTDFYMHWVKQSHGRSLEWIGYIYPHNGFTKYNQSFMGKATLTVNKSSNTAYMELRSLTSEDSAVYYCARRYGDYWGQGISVTVSS VL: not shown"
